Experiment [1] addresses T1, Recombinant human IL-18 (human, UniProt Q14116 37-193). Kind of experiment: cell-based or functional assay.
Experiment [2] addresses T1, Recombinant human IL-18. Put plainly: SET, simultaneous target binding, Assay A (excess of the other target, IL-1β). Here is the method:
(§1) The plate was blocked with 50 μl/well blocking buffer (PBS containing 5% BSA) for 1 hour (h), at room temperature (RT). After washing (TBST, TBS containing 0.05% Tween 20), a volume of 30 μl/well of the equilibrated antigen- antibody mix was transferred from the polypropylene MTP to the coated MSD plate and incubated for 20 min at RT. After an additional wash step, 30 μl sulfo tag-labeled anti-IgG detection antibody (0.5 μg/ml) diluted in sample buffer were added to each well and incubated for 30 min at RT on a shaker. The MSD plate was washed and 35 μl/well MSD read buffer were added and incubated for 5 min at RT. Electrochemiluminescence (ECL) signals were generated and measured by the MSD Sector Imager 6000.
(§2) Assay B: The equilibration process (antibody/antigen mix) was performed with both targets in serial dilutions in one mix simultaneously (constant concentration of antibody […], highest antigen conc. see above). The same mix was then analyzed for its free antibody concentration on IL18 and IL-1β coated plates as described above.

Experiment [3] has as its target T2, Recombinant marmoset IL-18 (marmoset, UniProt U3CWC9 37-190).
T2 construct: also called marIL-18
T2 sequence: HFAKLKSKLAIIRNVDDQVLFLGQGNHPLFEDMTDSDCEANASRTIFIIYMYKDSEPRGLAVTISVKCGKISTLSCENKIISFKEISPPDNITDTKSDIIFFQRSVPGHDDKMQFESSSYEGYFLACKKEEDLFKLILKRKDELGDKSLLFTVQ
The experiment is described as above. Here is the method: as §1, §2

Experiment [4] addresses T1, Recombinant human IL-18. Kind of experiment: cell-based or functional assay. This is another data set of the same source.
The target in experiment [5] is T1, Recombinant human IL-18. Kind of experiment: SET, simultaneous target binding, Assay B (both targets in serial dilutions in one mix). Here is the method: as §1, §2
In experiment [6] the target is T2, Recombinant marmoset IL-18. The experiment is described as above. Here is the method: as §1, §2
Experiment [7] addresses T3, Recombinant human IL-1β (human, UniProt P01584 117-269).
T3 construct: also called huIL-1β; IL-1b
The experiment is described as above. Here is the method: as §1, §2

In experiment [8] the target is T4, Recombinant marmoset IL-1β (marmoset, UniProt U3E018 117-268).
T4 construct: also called marIL-1β
The description is as above. Here is the method:
as §1, §2

Experiment [9] has as its target T2, Recombinant marmoset IL-18. Put plainly: cell-based or functional assay.
Experiment [10] addresses T1, Recombinant human IL-18. Kind of experiment: SET (solution equilibrium titration, MSD ECL), individual target binding. Here is the method: as §1
Experiment [11] has as its target T2, Recombinant marmoset IL-18. The description is as above. Here is the method:
as §1

The target in experiment [12] is T3, Recombinant human IL-1β. Kind of experiment: cell-based or functional assay.
The target in experiment [13] is T3, Recombinant human IL-1β. Put plainly: cell-based or functional assay. The source holds these as a separate data set.
Experiment [14] addresses T3, Recombinant human IL-1β. Put plainly: SET, simultaneous target binding, Assay A (excess of the other target, IL-18). Here is the method:
as §1, §2

The target of experiment [15] is T4, Recombinant marmoset IL-1β. The experiment is described as above. Here is the method: as §1, §2
The target of experiment [16] is T4, Recombinant marmoset IL-1β. Put plainly: cell-based or functional assay.
Experiment [17] concerns the target T3, Recombinant human IL-1β. Put plainly: SET (solution equilibrium titration, MSD ECL), individual target binding. Here is the method:
as §1

Experiment [18] deals with T4, Recombinant marmoset IL-1β. The description is as above. Here is the method: as §1

B1: mAb1 (IL-18 antibody) (antibody, human IgG1, lambda, L234A L235A, V domains shown)
VH: EVQLVQSGAEVKKPGSSVKVSCKASGGTFKSYAISWVRQAPGQGLEWMGNIIPMTGQTYYAQKFQGRVTITADESTSTAYMELSSLRSEDTAVYYCARAAYHPLVFDNWGQGTLVTVSS
VL: DIVLTQPPSVSGAPGQRVTISCSGSSSNIGNHYVNWYQQLPGTAPKLLIYRNNHRPSGVPDRFSGSKSGTSASLAITGLQSEDEADYYCQSWDYSGFSTVFGGGTKLTVLG
Regarding B1, in the experiment with Recombinant human IL-18 [1], the “Inhibition of SEAP in HEK reporter cells stimulated simultaneously with IL-1β and IL-18, IC50; mAb1 alone” value is over 30000 pM. Also, the “Inhibition of SEAP in HEK reporter cells stimulated simultaneously with IL-1β and IL-18, IC50; mAb2 and mAb1 combined” value with Recombinant human IL-18 [1] was 240 pM. In addition, the Kd in the experiment with Recombinant human IL-18 [2] turned out to be 13.5 pM; in experiment [3] it was 27.1 pM; with Recombinant human IL-18 [5], 11.4 pM; in [6], 26.3 pM; with Recombinant human IL-18 [10], 9 pM; in experiment [11] it was 21 pM. Further, the “IFNγ prod. KG-1 cells IC50 (3 nM recombinant human IL-18 and 1 ng/ml human IL-12)” value in the experiment with Recombinant human IL-18 [4] is 35 pM. Besides, the “IFNγ prod. PBMC IC50 (3 nM recombinant human IL-18 and 1 ng/ml human IL-12)” value with Recombinant human IL-18 [4] was found to be 780 pM. The figures for the binding result (in the experiment with Recombinant human IL-1β [7]; in [8]) were “no binding (tested: highest antigen conc. huIL-1β 0.5 nM)” and “no binding (tested: highest antigen conc. marIL-1β 0.5 nM)”, respectively. For the same molecule, the “IFNγ prod. Human PBMC IC50 (marmoset IL-18 1 nM and human IL-12 10 ng/ml)” value in experiment [9] was determined as 6600 pM. Further, the “IFNγ prod. Marmoset blood IC50 (marmoset IL-18 0.3 nM and human IL-12 10 ng/ml)” value in experiment [9] was determined as 4700 pM. In addition, the “IFNγ prod. Marmoset blood IC50 (marmoset IL-18 3 nM and human IL-12 10 ng/ml)” value in experiment [9] is 181000 pM.

B2: mAb2 (IL-1β antibody) (antibody, human IgG1, kappa, V domains shown)
VH: QVQLVESGGGVVQPGRSLRLSCAASGFTFSVYGMNWVRQAPGKGLEWVAIIWYDGDNQYYADSVKGRFTISRDNSKNTLYLQMNGLRAEDTAVYYCARDLRTGPFDYWGQGTLVTVSS
VL: EIVLTQSPDFQSVTPKEKVTITCRASQSIGSSLHWYQQKPDQSPKLLIKYASQSFSGVPSRFSGSGSGTDFTLTINSLEAEDAAAYYCHQSSSLPFTFGPGTKVDIKR
Turning to B2, the “IL-6 prod. PBMC IC50 (human PBMC stimulated with 60 pM recombinant human IL-1β)” value with Recombinant human IL-1β [12] is 0.29 nM. For the same molecule, in the experiment with Recombinant human IL-1β [12], the “IL-6 prod. derm. fibrobl. IC50 (human dermal fibroblasts stimulated with 6 pM recombinant human IL-1β)” value stood at 31 pM. For the same molecule, the “Inhibition of SEAP in HEK reporter cells stimulated simultaneously with IL-1β and IL-18, IC50; mAb2 alone” value in the experiment with Recombinant human IL-1β [13] came out at 30000 pM. For the same molecule, the “Inhibition of SEAP in HEK reporter cells stimulated simultaneously with IL-1β and IL-18, IC50; mAb2 and mAb1 combined” value with Recombinant human IL-1β [13] is 240 pM. Also, the Kd is 1.1 pM with Recombinant human IL-1β [14]; 0.8 pM in [15]; 3.2 pM with Recombinant human IL-1β [7]; 4.8 pM in experiment [8]; 0.6 pM in the experiment with Recombinant human IL-1β [17]; 1 pM in experiment [18]. In addition, the “IL-6 prod. dermal fibroblasts IC50, Exp. B (18 pM recombinant marmoset IL-1β; marmoset cells by the reading of the header)” value in experiment [16] was 0.138 nM. The “IL-6 prod. dermal fibroblasts IC50, Exp. C (18 pM recombinant marmoset IL-1β; human cells by the reading of the header)” value in experiment [16] worked out at 0.114 nM. The “IL-6 prod. marmoset dermal fibroblasts IC50, Exp. A (18 pM recombinant marmoset IL-1β)” value in [16] is 95 pM. In the experiment with Recombinant human IL-18 [5], the binding result is recorded as “no binding (tested: highest antigen conc. huIL-18 5 nM)”.

The term Kd denotes the free concentration of one partner at which half of the binding sites on the other are occupied at equilibrium, for simple one-to-one binding.

Source of the values: US20220177569A1 (Novartis, published 2022).
